Measured values published in paper PMC8263772.

Target: dog angiotensin-converting enzyme 2 (dACE2) ectodomain, 6xHis (dog)
Assay: SPR

SARS-CoV-2 spike (S) protein receptor binding domain (RBD), wild type (from UniProt P0DTC2) (domain or fragment)
Kd: 123 nM
